Patent US20210047428A1

Legend:
[1] = biological target: duck egg lysozyme (DEL), soluble recombinant (duck) (UniProt P00705); test: BLI; against WT HyHEL10 on DEL
[2] = biological target: duck egg lysozyme (DEL), soluble recombinant (duck) (UniProt P00705); test: BLI (BLItz), biotinylated Fab on streptavidin biosensor, soluble monomeric DEL 0.03-0.25 µM, global fit
[3] = biological target: HEL R21Q R73K L75A D101R (self with foreign 73, 75) (hen) (UniProt P00698); test: BLI; against I29F Fab on DEL
[4] = biological target: HEL^3X (hen egg lysozyme R21Q, R73E, D101R), soluble recombinant (hen) (UniProt P00698); test: BLI; against I29F Fab on DEL
[5] = biological target: HEL R21Q G71R R73K L75A N77G D101R (self with foreign 71, 73, 75, 77) (hen) (UniProt P00698); test: BLI; against I29F Fab on DEL
[6] = biological target: HEL R21Q R73K D101R (self with foreign 73) (hen) (UniProt P00698); test: BLI; against I29F Fab on DEL
[7] = biological target: duck egg lysozyme (DEL), soluble recombinant (duck) (UniProt P00705); test: BLI; against I29F Fab on DEL
[8] = biological target: HEL R21Q R73E L75A D101R (self with foreign 75) (hen) (UniProt P00698); test: BLI; against I29F Fab on DEL
[9] = biological target: HEL^3X (hen egg lysozyme R21Q, R73E, D101R), soluble recombinant (hen) (UniProt P00698); test: BLI (BLItz), biotinylated Fab on streptavidin biosensor, soluble monomeric HEL3X, global fit
[10] = biological target: HEL^3X (hen egg lysozyme R21Q, R73E, D101R), soluble recombinant (hen) (UniProt P00698); test: BLI; against WT HyHEL10 on HEL^3X
[11] = biological target: HEL R21Q R73K L75A D101R (self with foreign 73, 75) (hen) (UniProt P00698); test: BLI, Fab on streptavidin sensor
[12] = biological target: HEL^3X (hen egg lysozyme R21Q, R73E, D101R), soluble recombinant (hen) (UniProt P00698); test: BLI, Fab on streptavidin sensor
[13] = biological target: HEL R21Q G71R R73K L75A N77G D101R (self with foreign 71, 73, 75, 77) (hen) (UniProt P00698); test: BLI, Fab on streptavidin sensor
[14] = biological target: HEL R21Q R73K D101R (self with foreign 73) (hen) (UniProt P00698); test: BLI, Fab on streptavidin sensor
[15] = biological target: duck egg lysozyme (DEL), soluble recombinant (duck) (UniProt P00705); test: BLI, Fab on streptavidin sensor
[16] = biological target: HEL R21Q R73E L75A D101R (self with foreign 75) (hen) (UniProt P00698); test: BLI, Fab on streptavidin sensor
[17] = biological target: duck egg lysozyme (DEL), soluble recombinant (duck) (UniProt P00705); test: BLI (BLItz), biotinylated Fab on streptavidin biosensor, soluble monomeric DEL, global fit
[18] = biological target: duck egg lysozyme (DEL), soluble recombinant (duck) (UniProt P00705); test: BLI; affinity for DEL against affinity for HEL^3X
[19] = biological target: HEL^3X (hen egg lysozyme R21Q, R73E, D101R), soluble recombinant (hen) (UniProt P00698); test: BLI, highest concentration of HEL^3X tested
[20] = biological target: HEL^3X (hen egg lysozyme R21Q, R73E, D101R), soluble recombinant (hen) (UniProt P00698); test: BLI
[21] = biological target: duck egg lysozyme (DEL), soluble recombinant (duck) (UniProt P00705); test: BLI
[22] = biological target: duck egg lysozyme (DEL), soluble recombinant (duck) (UniProt P00705); test: BLI (BLItz), biotinylated Fab on streptavidin biosensor, soluble monomeric DEL 0.025-0.25 µM, global fit
[23] = biological target: duck egg lysozyme (DEL), soluble recombinant (duck) (UniProt P00705); test: BLI (BLItz), biotinylated Fab on streptavidin biosensor, soluble monomeric DEL 0.03-0.5 µM, global fit
[24] = biological target: HEL^R21Q,R73E,C76S,C94S (HEL^2X-flex) (hen) (UniProt P00698); test: BLI (Example 10)

Row | Substance | Fold change [1] | ΔΔG apparent [1] | Fold change [10] | ΔΔG apparent [10] | Kd [12] | Kd [15] | Ka [17] | Kd [17] | also measured
1 | HyHEL10 Fab I29F | 2.6 fold | -0.6 kcal/mol | -10.5 fold | 1.4 kcal/mol | 880 nM | 15 nM | – | – | Ka [2]: 6.4e+07 M⁻¹; Kd [2]: 16 nM; Fold change [3]: -1.8 fold; Fold change [4]: -56.1 fold; Fold change [5]: -2 fold; Fold change [6]: -22.3 fold; Fold change [7]: 0 fold; Fold change [8]: -54.5 fold; Ka [9]: 1.1e+06 M⁻¹; Kd [9]: 880 nM; Kd [11]: 28 nM; Kd [13]: 32 nM; Kd [14]: 350 nM; Kd [16]: 856 nM
2 | HyHEL10 Fab I29F/S52T | – | -1.1 kcal/mol | – | – | – | 6 nM | 1.7e+08 M⁻¹ | 5.8 nM | –
3 | HyHEL10 Fab I29F/S52T/Y53F | 245 fold | -3.3 kcal/mol | -9.6 fold | 1.3 kcal/mol | 807 nM | 0.164 nM | 6.1e+09 M⁻¹ | 0.16 nM | fold differential binding to foreign (DEL) over self (HEL^3X) [18]: 5000 fold
4 | HyHEL10 Fab I29F/S52T/Y58F | 23.8 fold | -1.9 kcal/mol | – | – | – | 2 nM | – | – | –
5 | HyHEL10 Fab I29F/Y53F | – | -2.2 kcal/mol | – | – | – | 1 nM | 9.7e+08 M⁻¹ | 1 nM | –
6 | HyHEL10 Fab S52R | – | – | – | – | – | – | – | – | fold lower affinity against unmutated HyHEL10 [19]: > 100 fold
7 | HyHEL10 Fab S52R/Y53F | – | – | – | – | – | – | – | – | fold lower affinity against unmutated HyHEL10 [19]: > 100 fold
8 | HyHEL10 Fab S52T | 1.2 fold | -0.1 kcal/mol | – | – | – | 33 nM | 3e+07 M⁻¹ | 34 nM | –
9 | HyHEL10 Fab S52T/Y53F | 1.1 fold | -1.4 kcal/mol | -1.8 fold | 0.3 kcal/mol | 152 nM | 3.6 nM | 2.8e+08 M⁻¹ | 3.6 nM | –
10 | HyHEL10 Fab S52T/Y53F/Y58F | 80 fold | -2.6 kcal/mol | 3.5 fold | -0.7 kcal/mol | 24 nM | 0.5 nM | 1.99e+09 M⁻¹ | 0.5 nM | fold increase of affinity against unmutated HyHEL10 [20]: 4 fold; fold lower affinity than the I29F-S52T-Y53F trio [21]: 3 fold
11 | HyHEL10 Fab S52T/Y58F | – | – | – | – | – | 3 nM | 3.8e+08 M⁻¹ | 2.6 nM | –
12 | HyHEL10 Fab Y53F | 4.8 fold | -0.9 kcal/mol | – | – | – | 8 nM | – | – | Ka [22]: 1.2e+08 M⁻¹; Kd [22]: 8.4 nM
13 | HyHEL10 Fab Y58F | – | -0.8 kcal/mol | – | – | – | 11 nM | 9.4e+07 M⁻¹ | 11 nM | –
14 | HyHEL10 Fab, wild-type | 0 fold | 0 kcal/mol | 0 fold | 0 kcal/mol | 84 nM | 40 nM | – | – | Ka [23]: 2.5e+07 M⁻¹; Kd [23]: 40 nM; Ka [24]: 1.6e+07 M⁻¹; Ka [9]: 1.2e+07 M⁻¹; Kd [9]: 84 nM
